Measured values taken from paper PMC5891007, “The crystal structure of XdpB, the bacterial old yellow enzyme, in an FMN-free form” (PLoS ONE, 2018).

Tests used:
[1] = test system: NC(=O)C1=CN([C@@H]2O[C@H](COP(=O)(O)OP(=O)(O)OC[C@H]3O[C@@H](n4cnc5c(N)ncnc54)[C@H](O)[C@@H]3O)[C@@H](O)[C@H]2O)C=CC1; test: purified protein; conditions: NADH co-substrate, pH 8, 25 °C, in vitro flavinated, recalculated to FMN saturation, except NADH varied (0.015 to 0.3 mM), co-substrate GTN
[2] = biological target: XdpR, TetR family transcriptional regulator of the xdo operon (Agrobacterium bohemicum R89-1); test: SEC + native gel or EMSA; gel filtration; native (blue native, 7% PAGE) and SDS electrophoresis
XdpB (XdpBwt) [3] = biological target: T1, XdpB (XdpBwt) (Agrobacterium tumefaciens, UniProt A0A0A0VDJ9); test: nanoDSF melting temperature; format: binding; parameters: full length with N-terminal His tag (XdpBwt), made in E. coli, Ni-NTA and gel filtration; in vitro flavinated with FMN for kinetics; C-terminal residue Asn365; conditions: apo form Tm 38.9 °C, 1 °C/min
T1 sequence (A0A0A0VDJ9 entry or part of it): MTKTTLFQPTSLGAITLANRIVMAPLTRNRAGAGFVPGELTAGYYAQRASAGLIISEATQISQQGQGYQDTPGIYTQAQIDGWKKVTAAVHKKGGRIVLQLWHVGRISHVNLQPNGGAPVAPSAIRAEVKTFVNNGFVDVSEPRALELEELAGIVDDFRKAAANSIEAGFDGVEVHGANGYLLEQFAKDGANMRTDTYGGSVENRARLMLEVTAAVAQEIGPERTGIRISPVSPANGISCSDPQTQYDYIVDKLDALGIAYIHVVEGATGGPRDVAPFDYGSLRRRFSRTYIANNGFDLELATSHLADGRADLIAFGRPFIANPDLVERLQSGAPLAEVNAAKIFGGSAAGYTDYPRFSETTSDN

[4] = biological target: OPR3 (Solanum lycopersicum) (UniProt Q9FEW9); conditions: cited from earlier work
XdpB (XdpBwt) [5] = biological target: T1, XdpB (XdpBwt); test: spectrophotometric NADH oxidation at […] nm, Lineweaver-Burk; conditions: read-out: Km^GTN; NADH co-substrate; pH 8; 25 °C; in vitro flavinated, recalculated to FMN saturation
[6] = biological target: XdpA, short chain dehydrogenase of the xdo operon (Agrobacterium bohemicum R89-1); test: SEC; gel filtration chromatography, with SDS PAGE for the subunit

Chain of OPR3 (Q9FEW9 whole entry): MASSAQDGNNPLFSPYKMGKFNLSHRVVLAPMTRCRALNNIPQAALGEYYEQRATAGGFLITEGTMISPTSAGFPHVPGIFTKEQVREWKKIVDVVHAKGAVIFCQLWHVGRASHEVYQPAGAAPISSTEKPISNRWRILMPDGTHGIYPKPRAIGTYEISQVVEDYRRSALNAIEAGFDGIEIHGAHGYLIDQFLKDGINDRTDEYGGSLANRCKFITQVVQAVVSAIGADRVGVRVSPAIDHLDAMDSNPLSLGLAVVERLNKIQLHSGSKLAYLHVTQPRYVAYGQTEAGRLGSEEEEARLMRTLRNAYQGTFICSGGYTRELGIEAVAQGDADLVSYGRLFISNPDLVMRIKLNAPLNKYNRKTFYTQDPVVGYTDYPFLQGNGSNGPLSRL

“XdpB (XdpBwt) (Agrobacterium tumefaciens)” gave a Km [1] of 6 ± 1 µM.
With “XdpR, TetR family transcriptional regulator of the xdo operon (natural protein)” the stoichiometry N [2] was 2.
For Cc1cc2nc3c(=O)[nH]c(=O)nc-3n(C[C@H](O)[C@H](O)[C@H](O)COP(=O)(O)O)c2cc1C [FMN, flavin mononucleotide], the “melting temperature of in vitro flavinated form” value (XdpB (XdpBwt) [3]) was 39.8 °C.
In the case of OPR3 (from UniProt Q9FEW9), the Kd [4] is given as 30 µM.
Compound O=[N+]([O-])OCC(CO[N+](=O)[O-])O[N+](=O)[O-] [GTN, glycerol trinitrate] has a Km (XdpB (XdpBwt) [5]) of 460 ± 132 µM.
“XdpA, short chain dehydrogenase of the xdo operon (enzyme)” showed a stoichiometry N [6] of 2.
